Results on 14 variants are retold here after the supplement of paper PMC12338614.

To fix the notation:
B1: library; numbered along this chain (parent)
chain: MEVVDPQQLGMFTEGELMSVGMDTFIHRIDSTEVIYQPRRKRAKLIGKYLMGDLLGEGSYGKVKEVLDSETLCRRAVKILKKKKLRRIPNGEANVKKEIQLLRRLRHKNVIQLVDVLYNEEKQKMYMVMEYCVCGMQEMLDSVPEKRFPVCQAHGYFCQLIDGLEYLHSQGIVHKDIKPGNLLLTTGGTLKISDLGVAEALHPFAADDTCRTSQGSPAFQPPEIANGLDTFSGFKVDIWSAGVTLYNITTGLYPFEGDNIYKLFENIGKGSYAIPGDCGPPLSDLLKGMLEYEPAKRFSIRQIRQHSWFRKKHPPAEAPVPIPPSPDTKDRWRSMTVVPYLEDLHGADEDEDLFDIEDDIIYTQDFTVPGQVPEEEASHNGQRRGLPKAVCMNGTEAAQLSTKSRAEGRAPNPARKACSASSKIRRLSACKQQ

± gives the uncertainty stated by the source.

The variants in this data set derive from B1. The experiment in a line: STK11 functional score (HeLa growth suppression), rescaled enrichment; synonymous median = 1, nonsense median = 0 (normalised score). The conditions noted are these: with HeLa; variant type: missense. The method in brief:
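HeLa cells carrying an AAVS1 landing pad received codon-optimised STK11 libraries made by codon randomisation (POPCode), integrated by Bxb1, with three regions each transfected three times. Integrants that were BFP-negative and mCherry-positive were sorted by FACS 4–5 days after electroporation and then grown for about two weeks. Tiled amplicons from gDNA were sequenced on NextSeq at ~2 million reads per tile. The functional score is a wild-type-corrected log ratio of post- to pre-selection counts, rescaled to the synonymous and nonsense medians, merged across codons and replicate transfections, and given a bootstrapped error.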
Turning to MEVVDPQQLGMFTEGELMSVGMDTFIHRIDSTEVIYQPRRKRAKLIGKYLMGDLLGEGSYGKVKEVLDSETLCRRAVKILKKKKLRRIPNGEANVKKEIQLLRRLRHKNVIQLVDVLYNEEKQKMYMVMEYCVCGMQEMLDSVPEKRFPVCQAHGYFCQLIDGLEYLHSQGIVHKDIKPGNLLLTTGGTLKISDLGVAEALHPFAADDTCRTSQGSPAFQPPEIANGLDTFSGFKVDIWSAGVTLYNITTGLYPFEGDNIYKLFENIGKGSYAIPGDCGPPLSDLLKGMLEYEPAKRFSIRQIRQHSWFRKKHPPAEAPVPIPPSPDTKDRWRSMTVVPYLEDLHGADEDEDLFDIEDDIIYTQDFTVPGQVPEEEASHNCQRRGLPKAVCMNGTEAAQLSTKSRAEGRAPNPARKACSASSKIRRLSACKQQ [G381C], the STK11 functional score turned out to be 1.1 ± 0.44. The value for MEVVDPQQLGMFTEGELMSVGMDTFIHRIDSTEVIYQPRRKRAKLIGKYLMGDLLGEGSYGKVKEVLDSETLCRRAVKILKKKKLRRIPNGEANVKKEIQLLRRLRHKNVIQLVDVLYNEEKQKMYMVMEYCVCGMQEMLDSVPEKRFPVCQAHGYFCQLIDGLEYLHSQGIVHKDIKPGNLLLTTGGTLKISDLGVAEALHPFAADDTCRTSQGSPAFQPPEIANGLDTFSGFKVDIWSAGVTLYNITTGLYPFEGDNIYKLFENIGKGSYAIPGDCGPPLSDLLKGMLEYEPAKRFSIRQIRQHSWFRKKHPPAEAPVPIPPSPDTKDRWRSMTVVPYLEDLHGADEDEDLFDIEDDIIYTQDFTVPGQVPEEEASHNAQRRGLPKAVCMNGTEAAQLSTKSRAEGRAPNPARKACSASSKIRRLSACKQQ [G381A] was 1.09 ± 0.4. Regarding MEVVDPQQLGMFTEGELMSVGMDTFIHRIDSTEVIYQPRRKRAKLIGKYLMGDLLGEGSYGKVKEVLDSETLCRRAVKILKKKKLRRIPNGEANVKKEIQLLRRLRHKNVIQLVDVLYNEEKQKMYMVMEYCVCGMQEMLDSVPEKRFPVCQAHGYFCQLIDGLEYLHSQGIVHKDIKPGNLLLTTGGTLKISDLGVAEALHPFAADDTCRTSQGSPAFQPPEIANGLDTFSGFKVDIWSAGVTLYNITTGLYPFEGDNIYKLFENIGKGSYAIPGDCGPPLSDLLKGMLEYEPAKRFSIRQIRQHSWFRKKHPPAEAPVPIPPSPDTKDRWRSMTVVPYLEDLHGADEDEDLFDIEDDIIYTQDFTVPGQVPEEEASHNFQRRGLPKAVCMNGTEAAQLSTKSRAEGRAPNPARKACSASSKIRRLSACKQQ [G381F], the STK11 functional score turned out to be 1.13 ± 0.42. Regarding MEVVDPQQLGMFTEGELMSVGMDTFIHRIDSTEVIYQPRRKRAKLIGKYLMGDLLGEGSYGKVKEVLDSETLCRRAVKILKKKKLRRIPNGEANVKKEIQLLRRLRHKNVIQLVDVLYNEEKQKMYMVMEYCVCGMQEMLDSVPEKRFPVCQAHGYFCQLIDGLEYLHSQGIVHKDIKPGNLLLTTGGTLKISDLGVAEALHPFAADDTCRTSQGSPAFQPPEIANGLDTFSGFKVDIWSAGVTLYNITTGLYPFEGDNIYKLFENIGKGSYAIPGDCGPPLSDLLKGMLEYEPAKRFSIRQIRQHSWFRKKHPPAEAPVPIPPSPDTKDRWRSMTVVPYLEDLHGADEDEDLFDIEDDIIYTQDFTVPGQVPEEEASHNDQRRGLPKAVCMNGTEAAQLSTKSRAEGRAPNPARKACSASSKIRRLSACKQQ [G381D], the STK11 functional score was 1.57 ± 0.29. Next, MEVVDPQQLGMFTEGELMSVGMDTFIHRIDSTEVIYQPRRKRAKLIGKYLMGDLLGEGSYGKVKEVLDSETLCRRAVKILKKKKLRRIPNGEANVKKEIQLLRRLRHKNVIQLVDVLYNEEKQKMYMVMEYCVCGMQEMLDSVPEKRFPVCQAHGYFCQLIDGLEYLHSQGIVHKDIKPGNLLLTTGGTLKISDLGVAEALHPFAADDTCRTSQGSPAFQPPEIANGLDTFSGFKVDIWSAGVTLYNITTGLYPFEGDNIYKLFENIGKGSYAIPGDCGPPLSDLLKGMLEYEPAKRFSIRQIRQHSWFRKKHPPAEAPVPIPPSPDTKDRWRSMTVVPYLEDLHGADEDEDLFDIEDDIIYTQDFTVPGQVPEEEASHMGQRRGLPKAVCMNGTEAAQLSTKSRAEGRAPNPARKACSASSKIRRLSACKQQ [N380M]: 1.55 ± 0.12; MEVVDPQQLGMFTEGELMSVGMDTFIHRIDSTEVIYQPRRKRAKLIGKYLMGDLLGEGSYGKVKEVLDSETLCRRAVKILKKKKLRRIPNGEANVKKEIQLLRRLRHKNVIQLVDVLYNEEKQKMYMVMEYCVCGMQEMLDSVPEKRFPVCQAHGYFCQLIDGLEYLHSQGIVHKDIKPGNLLLTTGGTLKISDLGVAEALHPFAADDTCRTSQGSPAFQPPEIANGLDTFSGFKVDIWSAGVTLYNITTGLYPFEGDNIYKLFENIGKGSYAIPGDCGPPLSDLLKGMLEYEPAKRFSIRQIRQHSWFRKKHPPAEAPVPIPPSPDTKDRWRSMTVVPYLEDLHGADEDEDLFDIEDDIIYTQDFTVPGQVPEEEASHYGQRRGLPKAVCMNGTEAAQLSTKSRAEGRAPNPARKACSASSKIRRLSACKQQ [N380Y]: 1.14 ± 0.4; MEVVDPQQLGMFTEGELMSVGMDTFIHRIDSTEVIYQPRRKRAKLIGKYLMGDLLGEGSYGKVKEVLDSETLCRRAVKILKKKKLRRIPNGEANVKKEIQLLRRLRHKNVIQLVDVLYNEEKQKMYMVMEYCVCGMQEMLDSVPEKRFPVCQAHGYFCQLIDGLEYLHSQGIVHKDIKPGNLLLTTGGTLKISDLGVAEALHPFAADDTCRTSQGSPAFQPPEIANGLDTFSGFKVDIWSAGVTLYNITTGLYPFEGDNIYKLFENIGKGSYAIPGDCGPPLSDLLKGMLEYEPAKRFSIRQIRQHSWFRKKHPPAEAPVPIPPSPDTKDRWRSMTVVPYLEDLHGADEDEDLFDIEDDIIYTQDFTVPGQVPEEEASHTGQRRGLPKAVCMNGTEAAQLSTKSRAEGRAPNPARKACSASSKIRRLSACKQQ [N380T]: 1.31 ± 0.45. The value for MEVVDPQQLGMFTEGELMSVGMDTFIHRIDSTEVIYQPRRKRAKLIGKYLMGDLLGEGSYGKVKEVLDSETLCRRAVKILKKKKLRRIPNGEANVKKEIQLLRRLRHKNVIQLVDVLYNEEKQKMYMVMEYCVCGMQEMLDSVPEKRFPVCQAHGYFCQLIDGLEYLHSQGIVHKDIKPGNLLLTTGGTLKISDLGVAEALHPFAADDTCRTSQGSPAFQPPEIANGLDTFSGFKVDIWSAGVTLYNITTGLYPFEGDNIYKLFENIGKGSYAIPGDCGPPLSDLLKGMLEYEPAKRFSIRQIRQHSWFRKKHPPAEAPVPIPPSPDTKDRWRSMTVVPYLEDLHGADEDEDLFDIEDDIIYTQDFTVPGQVPEEEASHRGQRRGLPKAVCMNGTEAAQLSTKSRAEGRAPNPARKACSASSKIRRLSACKQQ [N380R] was 1.56 ± 0.24. The value for MEVVDPQQLGMFTEGELMSVGMDTFIHRIDSTEVIYQPRRKRAKLIGKYLMGDLLGEGSYGKVKEVLDSETLCRRAVKILKKKKLRRIPNGEANVKKEIQLLRRLRHKNVIQLVDVLYNEEKQKMYMVMEYCVCGMQEMLDSVPEKRFPVCQAHGYFCQLIDGLEYLHSQGIVHKDIKPGNLLLTTGGTLKISDLGVAEALHPFAADDTCRTSQGSPAFQPPEIANGLDTFSGFKVDIWSAGVTLYNITTGLYPFEGDNIYKLFENIGKGSYAIPGDCGPPLSDLLKGMLEYEPAKRFSIRQIRQHSWFRKKHPPAEAPVPIPPSPDTKDRWRSMTVVPYLEDLHGADEDEDLFDIEDDIIYTQDFTVPGQVPEEEASHQGQRRGLPKAVCMNGTEAAQLSTKSRAEGRAPNPARKACSASSKIRRLSACKQQ [N380Q] was 1.47 ± 0.34. As for MEVVDPQQLGMFTEGELMSVGMDTFIHRIDSTEVIYQPRRKRAKLIGKYLMGDLLGEGSYGKVKEVLDSETLCRRAVKILKKKKLRRIPNGEANVKKEIQLLRRLRHKNVIQLVDVLYNEEKQKMYMVMEYCVCGMQEMLDSVPEKRFPVCQAHGYFCQLIDGLEYLHSQGIVHKDIKPGNLLLTTGGTLKISDLGVAEALHPFAADDTCRTSQGSPAFQPPEIANGLDTFSGFKVDIWSAGVTLYNITTGLYPFEGDNIYKLFENIGKGSYAIPGDCGPPLSDLLKGMLEYEPAKRFSIRQIRQHSWFRKKHPPAEAPVPIPPSPDTKDRWRSMTVVPYLEDLHGADEDEDLFDIEDDIIYTQDFTVPGQVPEEEASHLGQRRGLPKAVCMNGTEAAQLSTKSRAEGRAPNPARKACSASSKIRRLSACKQQ [N380L], the STK11 functional score turned out to be 0.908 ± 0.27. The value for MEVVDPQQLGMFTEGELMSVGMDTFIHRIDSTEVIYQPRRKRAKLIGKYLMGDLLGEGSYGKVKEVLDSETLCRRAVKILKKKKLRRIPNGEANVKKEIQLLRRLRHKNVIQLVDVLYNEEKQKMYMVMEYCVCGMQEMLDSVPEKRFPVCQAHGYFCQLIDGLEYLHSQGIVHKDIKPGNLLLTTGGTLKISDLGVAEALHPFAADDTCRTSQGSPAFQPPEIANGLDTFSGFKVDIWSAGVTLYNITTGLYPFEGDNIYKLFENIGKGSYAIPGDCGPPLSDLLKGMLEYEPAKRFSIRQIRQHSWFRKKHPPAEAPVPIPPSPDTKDRWRSMTVVPYLEDLHGADEDEDLFDIEDDIIYTQDFTVPGQVPEEEASHWGQRRGLPKAVCMNGTEAAQLSTKSRAEGRAPNPARKACSASSKIRRLSACKQQ [N380W] was 1.04 ± 0.73; that for MEVVDPQQLGMFTEGELMSVGMDTFIHRIDSTEVIYQPRRKRAKLIGKYLMGDLLGEGSYGKVKEVLDSETLCRRAVKILKKKKLRRIPNGEANVKKEIQLLRRLRHKNVIQLVDVLYNEEKQKMYMVMEYCVCGMQEMLDSVPEKRFPVCQAHGYFCQLIDGLEYLHSQGIVHKDIKPGNLLLTTGGTLKISDLGVAEALHPFAADDTCRTSQGSPAFQPPEIANGLDTFSGFKVDIWSAGVTLYNITTGLYPFEGDNIYKLFENIGKGSYAIPGDCGPPLSDLLKGMLEYEPAKRFSIRQIRQHSWFRKKHPPAEAPVPIPPSPDTKDRWRSMTVVPYLEDLHGADEDEDLFDIEDDIIYTQDFTVPGQVPEEEASHSGQRRGLPKAVCMNGTEAAQLSTKSRAEGRAPNPARKACSASSKIRRLSACKQQ [N380S] was 0.982 ± 0.22; that for MEVVDPQQLGMFTEGELMSVGMDTFIHRIDSTEVIYQPRRKRAKLIGKYLMGDLLGEGSYGKVKEVLDSETLCRRAVKILKKKKLRRIPNGEANVKKEIQLLRRLRHKNVIQLVDVLYNEEKQKMYMVMEYCVCGMQEMLDSVPEKRFPVCQAHGYFCQLIDGLEYLHSQGIVHKDIKPGNLLLTTGGTLKISDLGVAEALHPFAADDTCRTSQGSPAFQPPEIANGLDTFSGFKVDIWSAGVTLYNITTGLYPFEGDNIYKLFENIGKGSYAIPGDCGPPLSDLLKGMLEYEPAKRFSIRQIRQHSWFRKKHPPAEAPVPIPPSPDTKDRWRSMTVVPYLEDLHGADEDEDLFDIEDDIIYTQDFTVPGQVPEEEASHPGQRRGLPKAVCMNGTEAAQLSTKSRAEGRAPNPARKACSASSKIRRLSACKQQ [N380P] was 1.59 ± 0.26. Consider MEVVDPQQLGMFTEGELMSVGMDTFIHRIDSTEVIYQPRRKRAKLIGKYLMGDLLGEGSYGKVKEVLDSETLCRRAVKILKKKKLRRIPNGEANVKKEIQLLRRLRHKNVIQLVDVLYNEEKQKMYMVMEYCVCGMQEMLDSVPEKRFPVCQAHGYFCQLIDGLEYLHSQGIVHKDIKPGNLLLTTGGTLKISDLGVAEALHPFAADDTCRTSQGSPAFQPPEIANGLDTFSGFKVDIWSAGVTLYNITTGLYPFEGDNIYKLFENIGKGSYAIPGDCGPPLSDLLKGMLEYEPAKRFSIRQIRQHSWFRKKHPPAEAPVPIPPSPDTKDRWRSMTVVPYLEDLHGADEDEDLFDIEDDIIYTQDFTVPGQVPEEEASHVGQRRGLPKAVCMNGTEAAQLSTKSRAEGRAPNPARKACSASSKIRRLSACKQQ [N380V], for which the STK11 functional score is 1.12 ± 0.27.
